Experimental findings from patent publication CN116829596A (AUSTIA THERAPEUTICS INC, dated 2023) are described below.

Experiment [1] addresses T1, 人类血浆激肽释放酶 (human plasma kallikrein) (human, UniProt P03952 20-390; P03952 391-638).
T1 construct: The active enzyme is a cleaved two-chain form; also called pkal; pKal
Description: SPR, 37 C, pH 7.4. On the technique in general: SPR reads the build-up and loss of mass on a sensor chip optically.

Experiment [2] concerns the target T1, 人类血浆激肽释放酶 (human plasma kallikrein). Description: SPR, 37 C, pH 6.0.
Experiment [3] shares this target. Description: SPR, 37 C.
Experiment [4] has the same target. Nature of the experiment: SPR, 37 C, pH 7.4 or pH 6.0.

Some results are limits rather than exact numbers.

T1 sequence (P03952 20-390 S143N limits assumed, chain 1 of 2): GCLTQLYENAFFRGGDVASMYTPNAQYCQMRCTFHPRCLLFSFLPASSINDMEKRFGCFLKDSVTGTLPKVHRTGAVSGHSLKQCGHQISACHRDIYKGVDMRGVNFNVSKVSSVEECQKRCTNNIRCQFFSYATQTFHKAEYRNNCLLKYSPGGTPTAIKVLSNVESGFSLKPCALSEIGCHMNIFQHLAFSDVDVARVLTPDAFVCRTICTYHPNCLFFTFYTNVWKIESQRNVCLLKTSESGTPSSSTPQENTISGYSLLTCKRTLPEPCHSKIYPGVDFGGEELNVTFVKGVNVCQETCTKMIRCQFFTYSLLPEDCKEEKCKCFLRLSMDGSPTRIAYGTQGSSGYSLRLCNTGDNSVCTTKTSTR
T1 sequence (P03952 391-638 limits assumed, chain 2 of 2): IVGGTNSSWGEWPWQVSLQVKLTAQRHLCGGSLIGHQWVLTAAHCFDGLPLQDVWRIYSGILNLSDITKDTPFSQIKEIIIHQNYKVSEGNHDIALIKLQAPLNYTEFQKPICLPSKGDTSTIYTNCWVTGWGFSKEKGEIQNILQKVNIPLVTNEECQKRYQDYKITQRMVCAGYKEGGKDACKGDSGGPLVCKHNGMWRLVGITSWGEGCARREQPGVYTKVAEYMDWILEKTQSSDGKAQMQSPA

B1: MAb4-YTE (antibody, human IgG1, kappa)
heavy: QVQLVQSGAEVKKPGSSVKVSCKASGYAFSSYWMNWVRQAPGQGLEWIGQIYPGDDDTNYNAKFQGRVTITVDKSTTTAYMELSSLRSEDTAVYFCAGSLMVTTGAPFDYWGQGTTVTVSSASTKGPSVFPLAPSSKSTSGGTAALGCLVKDYFPEPVTVSWNSGALTSGVHTFPAVLQSSGLYSLSSVVTVPSSSLGTQTYICNVNHKPSNTKVDKRVEPKSCDKTHTCPPCPAPELLGGPSVFLFPPKPKDTLYITREPEVTCVVVDVSHEDPEVKFNWYVDGVEVHNAKTKPREEQYNSTYRVVSVLTVLHQDWLNGKEYKCKVSNKALPAPIEKTISKAKGQPREPQVYTLPPSREEMTKNQVSLTCLVKGFYPSDIAVEWESNGQPENNYKTTPPVLDSDGSFFLYSKLTVDKSRWQQGNVFSCSVMHEALHNHYTQKSLSLSPG
light: DIQMTQSPSSLSASVGDRVTITCKASQDVGIAVAWYQQKPGKAPKFLIYYASHRGWGVPDRFSGSGSGTDFTLTISSLQPEDFATYFCQQYRSYPLTFGQGTKLEIKRTVAAPSVFIFPPSDEQLKSGTASVVCLLNNFYPREAKVQWKVDNALQSGNSQESVTEQDSKDSTYSLSSTLTLSKADYEKHKVYACEVTHQGLSSPVTKSFNRGEC
notes: Humanised full-length human IgG1 kappa; also called Mab-YTE
B1: the results for the Kd in experiment [1] and in experiment [2] were 1.1 nM and 0.9 nM, respectively. In addition, in experiment [3], the “fold stronger binding affinity than DX-2930” value was > 5 倍. In addition, the “fold affinity for plasma kallikrein over prekallikrein” value in experiment [4] is > 1000 倍.

B2: MAb4-LS (antibody, human IgG1, kappa)
heavy: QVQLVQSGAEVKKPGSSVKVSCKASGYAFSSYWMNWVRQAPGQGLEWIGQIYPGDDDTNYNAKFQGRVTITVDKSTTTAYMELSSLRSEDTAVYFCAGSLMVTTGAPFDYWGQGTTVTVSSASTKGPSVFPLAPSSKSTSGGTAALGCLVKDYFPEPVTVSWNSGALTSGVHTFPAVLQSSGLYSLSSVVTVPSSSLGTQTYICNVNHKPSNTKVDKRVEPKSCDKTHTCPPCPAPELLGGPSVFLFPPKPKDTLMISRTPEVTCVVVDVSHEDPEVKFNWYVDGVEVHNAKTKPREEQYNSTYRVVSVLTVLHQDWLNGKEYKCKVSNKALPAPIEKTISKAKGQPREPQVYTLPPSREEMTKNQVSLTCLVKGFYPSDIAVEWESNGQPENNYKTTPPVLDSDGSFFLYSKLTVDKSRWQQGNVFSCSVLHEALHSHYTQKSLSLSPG
light: DIQMTQSPSSLSASVGDRVTITCKASQDVGIAVAWYQQKPGKAPKFLIYYASHRGWGVPDRFSGSGSGTDFTLTISSLQPEDFATYFCQQYRSYPLTFGQGTKLEIKRTVAAPSVFIFPPSDEQLKSGTASVVCLLNNFYPREAKVQWKVDNALQSGNSQESVTEQDSKDSTYSLSSTLTLSKADYEKHKVYACEVTHQGLSSPVTKSFNRGEC
notes: Humanised full-length human IgG1 kappa
In the case of B2, the dissociation constant Kd is 2.2 nM in experiment [1] and 1.2 nM in experiment [2]. Moreover, in experiment [3], the “fold stronger binding affinity than DX-2930” value is > 5 倍. Moreover, the “fold affinity for plasma kallikrein over prekallikrein” value in experiment [4] is > 1000 倍.

Usually Kd stands for a measure of binding affinity in units of concentration. Higher therefore signals lower affinity.
